Data from the supplement of paper PMC9170038.

Tested on: MS2 coat protein
Test: apparent KD of MS2 coat protein; designed switch direction (-1 OFF switch, 1 ON switch): 1; higher = weaker reporter binding
How it was run: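 The reported apparent KD is a per-design median over clusters, from curve fits of normalised cluster fluorescence. Protein titrations used SNAP-549-labelled MS2 coat protein, doubled from 0.7 or 1.5 nM to 3 µM, in Tris-HCl pH 7.5 buffer with KCl, MgCl2, BSA, DTT, tRNA and Tween-20, with no input, 200 uM small-molecule ligand, or an oligonucleotide input. The RNA switches were transcribed on Illumina chips by stalled E. coli RNA polymerase.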

[1] = input ligand: microRNA oligo, concentration not stated
[2] = Eterna round: R95, input ligand: FMN 200 uM
[3] = Eterna round: R95, input ligand: microRNA oligo, concentration not stated
[4] = Eterna round: R95, input ligand: none

| Sequence | apparent KD of MS2 coat protein (input ligand: FMN 200 uM) | apparent KD of MS2 coat protein [1] | apparent KD of MS2 coat protein (input ligand: none) | apparent KD of MS2 coat protein [2] | apparent KD of MS2 coat protein [3] | apparent KD of MS2 coat protein [4] |
| --- | --- | --- | --- | --- | --- | --- |
| UAAAGAAAGCGAGGAUAUAGCCCAUGUGAAGAACUAGAAGGCGCAGACAUGAGGAUCACCCAUGUGUUCAUGAGGAGGAGGACA [Kawasakiqro] (Eterna round: R96, puzzle: Same State NG 1) | 0.0886 µM | 0.0519 µM | 0.0577 µM | – | – | – |
| UAAAGCGACGUAGGAUAUCCUCUACAUGCGUAAGGAGAAGGAUGCGCAACAUGAGGAUCACCCAUGUAAAACCAGCACUGCUGG [Isaerte] (Eterna round: R96, puzzle: Same State NG 1) | 0.0719 µM | 0.0225 µM | 0.0367 µM | – | – | – |
| UAAAUAAAGUAAGGAUAUACAUGAGGAUUUCUCGUAGAAGGUACAAGACAUGAGGAUCACCCAUGUAUCGCUCCGUAGAGCGUA [Mat - Same State NG 1 - JL mod - D21] (Eterna round: R96, puzzle: Same State NG 1) | – | 0.0577 µM | – | – | – | – |
| UAAGAACAUGAGGAUCACCCAUGUGGAAAGAACACAGGAUAUCAUAGUAGAACGAGACUAUGAGAAGGGUGACACG [Texeistean] (puzzle: Same State 1) | – | – | – | 0.595 µM | 0.214 µM | 0.666 µM |
| UAAUUAAAGCAAGGAUAUCACGUCGUUUAGACGUGAGAAGGUGCUCCUUACAUGAGGAUCACCCAUGUAUAACAUGAAUAAUUA [SSNG1/10-B3] (Eterna round: R96, puzzle: Same State NG 1) | 0.17 µM | 0.517 µM | 0.656 µM | – | – | – |
| UAAUUAAGUCAAGGAUAUCACGUCGAUUAGACGUGAGAAGGUGACCAAUACAUGAGGAUCACCCAUGUAAUACAUGAAUAAUUA [SSNG1/12-B2] (Eterna round: R96, puzzle: Same State NG 1) | 0.0227 µM | 0.0532 µM | 0.0564 µM | – | – | – |
| UACAAUCUAUCUGAGGAUAUCAUGAUGAUAACAUGAGGAUCACCCAUGUGCAGGAAAACUGCAUAUGAGAAGGCAGAUAGAUUGU [salish99_ss2_r3_074] (puzzle: Same State 2) | – | – | – | 0.102 µM | 0.195 µM | 0.0924 µM |
| UACAAUCUAUCUGAGGAUAUCAUGAUUUAAACAUGAGGAUCACCCAUGUGCAGGAAAACUGCAUAUGAGAAGGCAGAUAGAUUGU [salish99_ss2_r3_063] (puzzle: Same State 2) | – | – | – | 0.135 µM | 0.297 µM | 0.241 µM |
| UACUAUCUAUCUCAGGAUAUCAUGUCAAAGACAUGAGGAUCACCCAUGUACCAGGAAACUGGUUAUGAGAAGGGAGAUAGAUAGU [Mat - Same State 2 - Mod - D40] (puzzle: Same State 2) | – | – | – | 0.16 µM | 0.0532 µM | 0.249 µM |
| UAGAAACAUGAGGAUCACCCAUGUGGGUUAAACACAGGAUAUCAUGCCACACGAUAGGUAUGAGAAGGGUGACCGU [Sodion] (puzzle: Same State 1) | – | – | – | 0.234 µM | 0.0795 µM | 0.0533 µM |
| UAGAGAGGAAGCGAGGAUAUCGUGGGAGGAACAUGAGGAUCACCCAUGUGUGAUGUUGAGAGGGACGAGAAGGCGCGGGAAAGUA [JR_SS2_Sub079] (puzzle: Same State 2) | – | – | – | 0.171 µM | 0.194 µM | 0.277 µM |
| UAGCGCUGUCGAGAGGAUAUGCGGUGAUGGACAUGAGGAUCACCCAUGUUAGCGAUAGCAUUACGGUAGAAGGCUCUACAGCUGC [salish99_ss2_r3_092] (puzzle: Same State 2) | – | – | – | – | 0.0232 µM | – |
| UAGCUCGUGUGAGGAUAUGCCGCCGUUUCGGCUGCAGAAGGUGCUACGUUACAUGAGGAUCACCCAUGUCUCUGUUGUUUCGUG [salish99_SSNG1_r04_957] (Eterna round: R96, puzzle: Same State NG 1) | 0.0189 µM | 0.0196 µM | 0.0218 µM | – | – | – |
| UAGGCUGGUACAGGAUAUGCCGUAUUUUAGUCGGCAGAAGGGUGCUCACAUGAGGAUCACCCAUGUAUACAGCCAGAUCAUGUU [MOD JMF Solution 2] (Eterna round: R96, puzzle: Same State NG 1) | 0.132 µM | 0.107 µM | 0.0432 µM | – | – | – |
| UAGUACAUGCUUUUUGCCCGUCUUAGAUAACAUGAGGAUCACCCAUGUAAGGUGAAAGUUAUAUAGUGGAGGAAGAU [JR_SHM208A_Sub055] (puzzle: Sensor for hsa-mir-208a) | – | – | – | 0.107 µM | 0.36 µM | 0.107 µM |
| UAGUGCAUUAGAGGAUAUUCUUACGACACGAGUAAGACAUGAGGAUCUCCCAUGUUGUGGCAUGGGAAGAAGGCUGAUGUGCUA [Omei SS(NG)2 Bv8] (Eterna round: R96, puzzle: Same State NG 2) | 0.0525 µM | 0.00684 µM | 0.155 µM | – | – | – |

| Sequence | apparent KD of MS2 coat protein (input ligand: FMN 200 uM) | apparent KD of MS2 coat protein [1] | apparent KD of MS2 coat protein (input ligand: none) | apparent KD of MS2 coat protein [2] | apparent KD of MS2 coat protein [3] | apparent KD of MS2 coat protein [4] |
| --- | --- | --- | --- | --- | --- | --- |
| UAGUUACUAUCUCAGGAUAUCAUGUCAAAGACAUGAGGAUCACCCAUGUACCAGGAAACUGGUUAUGAGAAGGGAGAUAGUAACU [Mat - Same State 2 - Mod - D55] (puzzle: Same State 2) | – | – | – | 0.134 µM | 0.104 µM | 1.07 µM |
| UAGUUUUAGCGAGGAUAUCGUAUGUUUAAUUUUUUAUAUUGUUUACAUGAGGAUCACCCAUGUUACGAGAAGGCGCAUGGGAUU [JR_SSNG2_Sub080] (Eterna round: R96, puzzle: Same State NG 2) | – | 0.273 µM | – | – | – | – |
| UAUGAACAUGAGGAUCACCCAUGUGGUACGAUCACAGGAUAUCACCUCGGACGUGCGAUGUGAGAAGGGUGAUGGU [Same State 1 - Mod of Vinnie Anrelari v.1] (puzzle: Same State 1) | – | – | – | – | 0.0631 µM | – |
| UAUUUAAUCGUAGGAUAUAGAAUGAAAUUUGUACUAGAAGGACGUUACAUGAGGAUCACCCAUGUGGUAAGUGGGACAUAGAUU [JR_SSNG1_Sub035] (Eterna round: R96, puzzle: Same State NG 1) | 0.235 µM | 0.105 µM | 0.121 µM | – | – | – |
| UCCUCAGUUUCACAGGAUAUGCGCUGAGUCACAUGAGGAUCACCCAUGUAGACGGAAAAUGUCGGGCAGAAGGGUGAGGCAUAAA [Diretibe] (puzzle: Same State 2) | – | – | – | 0.0572 µM | 0.117 µM | 4.57 µM |
| UCGGGCGUACUUGCUGACAUGAGGAUCACCCAUGUAAUUGGGAAGGAUAUGGUUCCGUUUCGGUUCCAGAAGGUCCUGGGUGCU [salish99_SSNG3_r04_312] (Eterna round: R96, puzzle: Same State NG 3) | 0.819 µM | 0.331 µM | 0.443 µM | – | – | – |
| UCGUUCAUCGUAGGAUAUCUAGGAUAUGAACGAGGAUCACCCGAGCAGCAUCAGCGCAUCAGAGGAGAGAAGGACGAUGAUGCG [pwkr ssNG2 2F5 2FMN.4] (Eterna round: R96, puzzle: Same State NG 2) | 1.08 µM | 0.0372 µM | 0.172 µM | – | – | – |
| UCGUUCAUCGUAGGAUAUCUAGGAUAUGAACGAGGAUCACCCGAGCAGCAUCAGCGCAUCAGAGGAGAGAAGGACGCUGAUGCG [pwkr ssNG2 2F5 2FMN.20] (Eterna round: R96, puzzle: Same State NG 2) | 0.03 µM | 0.00883 µM | 0.0848 µM | – | – | – |
| UCUGCAAUUAACGCCUACAUGAGGAUCACCCAUGUAUGUAGGCAGGAUAUCGUUUGCUUUGCAAACGAGAAGGGCUGUAGUAGC [salish99_SSNG3_R04_001] (Eterna round: R96, puzzle: Same State NG 3) | 0.0524 µM | 0.0492 µM | 0.0616 µM | – | – | – |
| UCUUGGUUUUUGCUCGUUUUUUGUGUUGAACAUGAGGAUCACCCAUGUAUUGUACGAUCCAAUUUGAUAAUGGUCCG [JMF 61] (puzzle: Sensor for hsa-mir-208a) | – | – | – | 0.0442 µM | 0.0344 µM | 0.0487 µM |
| UCUUGGUUUUUGCUCGUUUUUUGUGUUGAACAUGAGGAUCACCCAUGUAUUGUACGGUCCAAUUUAGUAAUGGUCCG [JMF 26] (puzzle: Sensor for hsa-mir-208a) | – | – | – | 0.0254 µM | 0.0132 µM | 0.0236 µM |
| UCUUGGUUUUUGCUCGUUUUUUGUGUUGAACAUGAGGAUCACCCAUGUAUUGUACGGUCCAAUUUAGUGGUAAUCCG [JMF 66] (puzzle: Sensor for hsa-mir-208a) | – | – | – | 0.0451 µM | 0.029 µM | 0.0487 µM |
| UCUUGGUUUUUGCUCGUUUUUUGUGUUGAACAUGAGGAUCACCCAUGUAUUGUACGGUCCAAUUUGAUAAUGGUCCG [JMF 27] (puzzle: Sensor for hsa-mir-208a) | – | – | – | 0.0251 µM | 0.0139 µM | 0.0256 µM |
| UCUUGGUUUUUGCUCGUUUUUUGUGUUGAACAUGAGGAUCACCCAUGUAUUGUACGGUCCAGUUUGGUAAUGGUCCA [JMF 8] (puzzle: Sensor for hsa-mir-208a) | – | – | – | 0.0312 µM | 0.0205 µM | 0.035 µM |
| UCUUGGUUUUUGCUCGUUUUUUGUGUUGAACAUGAGGAUCACCCAUGUAUUGUACGGUCCGAUUUGAUGAUGGUCCA [JMF 42] (puzzle: Sensor for hsa-mir-208a) | – | – | – | 0.0314 µM | 0.0222 µM | 0.0351 µM |
| UGAACCGUCACAGGAUAUCAUGCGAAAAUUGCGUGAGAAGGGUGGAUGUUGUGCUCAAAGUUAUACAUGAGGAUCACCCAUGUU [SameState NG1 #45] (Eterna round: R96, puzzle: Same State NG 1) | 0.133 µM | 0.188 µM | 0.285 µM | – | – | – |
